Tests used:
[1] = molecular target: civet SARS CoV SZ3/2003 spike protein ectodomain (civet SARS CoV SZ3/2003 | bacteriophage T4); assay: cryo-EM structure
[2] = molecular target: civet SARS CoV 007/2004 spike protein ectodomain (civet SARS CoV 007/2004 | bacteriophage T4); assay: cryo-EM structure

Row | Substance | stoichiometry N [1] | stoichiometry N [2]
1 | civet SARS CoV SZ3/2003 spike protein ectodomain (domain or fragment) | 3 | –
2 | civet SARS CoV 007/2004 spike protein ectodomain (domain or fragment) | – | 3

From article PMC11236199
